Assay results reported in patent US20150344570A1 (published 2015).

What was measured:
[1] = biological target: T1, FcγRIIa R (extracellular domain, His tag at the C terminus) (human, UniProt P12318 34-217); test: SPR (Biacore), relative binding, control GpH7-A5/GpH7-B3/GpL16-k0 = 100
T1 construct: extracellular domain; Soluble analyte in Biacore; also called FcgRIIa R type; 2aR
T1 sequence (looked up): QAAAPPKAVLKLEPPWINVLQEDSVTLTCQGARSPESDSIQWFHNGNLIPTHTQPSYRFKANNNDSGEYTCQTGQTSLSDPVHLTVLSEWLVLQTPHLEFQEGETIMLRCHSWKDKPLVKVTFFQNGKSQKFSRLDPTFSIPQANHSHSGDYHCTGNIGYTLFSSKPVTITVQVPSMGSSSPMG

FcγRIIa R [2] = biological target: T2, FcγRIIa R (human, UniProt P12318 34-217); test: ratio of He/Con_2aR to He/Con_2b (binding to FcγRIIb as reference); SPR
T2 construct: extracellular domain; Soluble His-tagged extracellular domain expressed in FreeStyle293 cells; analyte in Biacore; also called FcgRIIa R; FcgRIIaR; not shown: His tag attached to the C terminus
T2 sequence (looked up): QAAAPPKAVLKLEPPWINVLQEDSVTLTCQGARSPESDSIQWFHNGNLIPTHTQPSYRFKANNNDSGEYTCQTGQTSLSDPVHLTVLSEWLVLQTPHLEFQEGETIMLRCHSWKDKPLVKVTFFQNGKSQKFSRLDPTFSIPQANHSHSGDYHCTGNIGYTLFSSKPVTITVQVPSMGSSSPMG

FcγRIIa R [3] = biological target: T2, FcγRIIa R; test: SPR (Biacore), antibody captured via antigen peptide, FcγR as analyte
Description: (§1) The heterodimerized antibodies He Abs in which one of the H chains was introduced with an alteration were assayed for their binding activities to each activating FcγR and inhibitory FcγR according to the method described in Example 4. […] The activating FcγRs in FIGS. 26, 27, 28, and 29 are FcγRIa, FcγRIIa (R), FcγRIIa (H), and FcγRIIIa, respectively.
(§2) Analysis of interaction between objective antibody and the FcγR was carried out using Biacore T100 (GE Healthcare). HBS-EP+ (GE Healthcare) was used as the running buffer, and the measurement temperature was set to 25° C. Chips produced by immobilizing the antigen peptide by the amine coupling method to a Series S Sencor Chip CM5 (GE Healthcare), or alternatively, chips produced by allowing preliminarily biotinylated antigen peptides to interact with and immobilize onto a Series S Sensor Chip SA (certified) (GE Healthcare) were used. Antibodies of interest were captured onto an antigen peptide-immobilized chip, and allowed to interact to each FcγR diluted with running buffer. To regenerate and repeatedly use the chip, the antibodies captured on the chip were washed off by reacting 10 mM glycine-HCl, pH 1.5.

FcγRIIb = biological target: T3, FcγRIIb (human, UniProt P31994 43-217); test: as above
T3 construct: extracellular domain; Soluble His-tagged extracellular domain expressed in FreeStyle293 cells; analyte in Biacore; also called FcgRIIb; 2b; not shown: His tag attached to the C terminus
T3 sequence (looked up): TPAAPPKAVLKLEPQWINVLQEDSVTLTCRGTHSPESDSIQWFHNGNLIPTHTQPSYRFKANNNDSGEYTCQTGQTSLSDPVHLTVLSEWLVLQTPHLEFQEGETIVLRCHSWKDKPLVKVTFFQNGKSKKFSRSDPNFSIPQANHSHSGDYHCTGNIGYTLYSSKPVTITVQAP
Description: as §1, §2

B1: GpH7-A5/GpH7-B3 variant T335_19Q/GpL16-k0 (antibody, human IgG1, kappa)
heavy 1: not shown
heavy 2: not shown
light: DIVMTQSPLSLPVTPGEPASISCQASESLVHSNRNTYLHWYLQKPGQSPQLLIYKVSNRFSGVPDRFSGSGSGTDFTLKISRVEAEDVGVYYCSQNTHVPPTFGQGTKVEIERTVAAPSVFIFPPSDEQLKSGTASVVCLLNNFYPREAKVQWKVDNALQSGNSQESVTEQDSKDSTYSLSSTLTLSKADYEKHKVYACEVTHQGLSSPVTKSFNRGEC
notes: heterodimerized; also called He Ab
In the case of B1, the He/Con_2aR [1] is reported as 106 % of control.

B2: GpH7-A5/GpH7-B3 variant A330_08L/GpL16-k0 (antibody, human IgG1, kappa)
heavy 1: not shown
heavy 2: not shown
light: DIVMTQSPLSLPVTPGEPASISCQASESLVHSNRNTYLHWYLQKPGQSPQLLIYKVSNRFSGVPDRFSGSGSGTDFTLKISRVEAEDVGVYYCSQNTHVPPTFGQGTKVEIERTVAAPSVFIFPPSDEQLKSGTASVVCLLNNFYPREAKVQWKVDNALQSGNSQESVTEQDSKDSTYSLSSTLTLSKADYEKHKVYACEVTHQGLSSPVTKSFNRGEC
notes: Heterodimerized anti-glypican-3 IgG1 antibody; alteration only in the GpH7-B3 H chain; position in EU numbering; also called He Ab
For B2, the “He_2aR/2b (IIaR/IIb)” value (FcγRIIa R [2]) was 1.26, the “He/Con_2aR (IIaR binding relative to GpH7-A5/GpH7-B3/GpL16-k0)” value (FcγRIIa R [3]) was 88.8 % of control (control = 100) and the “He/Con_2b (IIb binding relative to GpH7-A5/GpH7-B3/GpL16-k0)” value (FcγRIIb) was 70.5 % of control (control = 100).

B3: GpH7-A5/GpH7-B3 variant T335_16H/GpL16-k0 (antibody, human IgG1, kappa)
heavy 1: not shown
heavy 2: not shown
light: DIVMTQSPLSLPVTPGEPASISCQASESLVHSNRNTYLHWYLQKPGQSPQLLIYKVSNRFSGVPDRFSGSGSGTDFTLKISRVEAEDVGVYYCSQNTHVPPTFGQGTKVEIERTVAAPSVFIFPPSDEQLKSGTASVVCLLNNFYPREAKVQWKVDNALQSGNSQESVTEQDSKDSTYSLSSTLTLSKADYEKHKVYACEVTHQGLSSPVTKSFNRGEC
notes: as for B1
With B3 the He/Con_2aR [1] was 108 % of control.

B4: GpH7-A5/GpH7-B3 variant Y300_04F/GpL16-k0 (antibody, human IgG1, kappa)
heavy 1: not shown
heavy 2: not shown
light: DIVMTQSPLSLPVTPGEPASISCQASESLVHSNRNTYLHWYLQKPGQSPQLLIYKVSNRFSGVPDRFSGSGSGTDFTLKISRVEAEDVGVYYCSQNTHVPPTFGQGTKVEIERTVAAPSVFIFPPSDEQLKSGTASVVCLLNNFYPREAKVQWKVDNALQSGNSQESVTEQDSKDSTYSLSSTLTLSKADYEKHKVYACEVTHQGLSSPVTKSFNRGEC
notes: as for B1
B4 was tested, and the He/Con_2aR [1] was 108 % of control.

B5: GpH7-A5/GpH7-B3 variant Y300_05P/GpL16-k0 (antibody, human IgG1, kappa)
heavy 1: not shown
heavy 2: not shown
light: DIVMTQSPLSLPVTPGEPASISCQASESLVHSNRNTYLHWYLQKPGQSPQLLIYKVSNRFSGVPDRFSGSGSGTDFTLKISRVEAEDVGVYYCSQNTHVPPTFGQGTKVEIERTVAAPSVFIFPPSDEQLKSGTASVVCLLNNFYPREAKVQWKVDNALQSGNSQESVTEQDSKDSTYSLSSTLTLSKADYEKHKVYACEVTHQGLSSPVTKSFNRGEC
notes: as for B2
B5 was tested, and the “He_2aR/2b (IIaR/IIb)” value (FcγRIIa R [2]) was 1.47 and the “He/Con_2aR (IIaR binding relative to GpH7-A5/GpH7-B3/GpL16-k0)” value (FcγRIIa R [3]) was 10.8 % of control (control = 100).

B6: GpH7-A5/GpH7-B3 variant A330_09D/GpL16-k0 (antibody, human IgG1, kappa)
heavy 1: not shown
heavy 2: not shown
light: DIVMTQSPLSLPVTPGEPASISCQASESLVHSNRNTYLHWYLQKPGQSPQLLIYKVSNRFSGVPDRFSGSGSGTDFTLKISRVEAEDVGVYYCSQNTHVPPTFGQGTKVEIERTVAAPSVFIFPPSDEQLKSGTASVVCLLNNFYPREAKVQWKVDNALQSGNSQESVTEQDSKDSTYSLSSTLTLSKADYEKHKVYACEVTHQGLSSPVTKSFNRGEC
notes: as for B2
With B6 the “He_2aR/2b (IIaR/IIb)” value (FcγRIIa R [2]) was 1.27, the “He/Con_2aR (IIaR binding relative to GpH7-A5/GpH7-B3/GpL16-k0)” value (FcγRIIa R [3]) was 70.9 % of control (control = 100) and the “He/Con_2b (IIb binding relative to GpH7-A5/GpH7-B3/GpL16-k0)” value (FcγRIIb) was 55.6 % of control (control = 100).

B7: GpH7-A5/GpH7-B3 variant V266_06M/GpL16-k0 (antibody, human IgG1, kappa)
heavy 1: not shown
heavy 2: not shown
light: DIVMTQSPLSLPVTPGEPASISCQASESLVHSNRNTYLHWYLQKPGQSPQLLIYKVSNRFSGVPDRFSGSGSGTDFTLKISRVEAEDVGVYYCSQNTHVPPTFGQGTKVEIERTVAAPSVFIFPPSDEQLKSGTASVVCLLNNFYPREAKVQWKVDNALQSGNSQESVTEQDSKDSTYSLSSTLTLSKADYEKHKVYACEVTHQGLSSPVTKSFNRGEC
notes: as for B1
For B7, the He/Con_2aR [1] was 150 % of control.

B8: GpH7-A5/GpH7-B3 variant A330_03V/GpL16-k0 (antibody, human IgG1, kappa)
heavy 1: not shown
heavy 2: not shown
light: DIVMTQSPLSLPVTPGEPASISCQASESLVHSNRNTYLHWYLQKPGQSPQLLIYKVSNRFSGVPDRFSGSGSGTDFTLKISRVEAEDVGVYYCSQNTHVPPTFGQGTKVEIERTVAAPSVFIFPPSDEQLKSGTASVVCLLNNFYPREAKVQWKVDNALQSGNSQESVTEQDSKDSTYSLSSTLTLSKADYEKHKVYACEVTHQGLSSPVTKSFNRGEC
notes: as for B2
For B8, the “He_2aR/2b (IIaR/IIb)” value (FcγRIIa R [2]) was 1.43, the “He/Con_2aR (IIaR binding relative to GpH7-A5/GpH7-B3/GpL16-k0)” value (FcγRIIa R [3]) was 74.9 % of control (control = 100) and the “He/Con_2b (IIb binding relative to GpH7-A5/GpH7-B3/GpL16-k0)” value (FcγRIIb) was 52.4 % of control (control = 100).
